Laboratory results published in patent US20240352128A1 (published 2024).

T1: cynomolgus monkey CD16a on HEK293 cells expressing cyno monkey CD16a (constructed by Genscript) (cynomolgus monkey, UniProt Q8SPW2 17-254)
T1 chain: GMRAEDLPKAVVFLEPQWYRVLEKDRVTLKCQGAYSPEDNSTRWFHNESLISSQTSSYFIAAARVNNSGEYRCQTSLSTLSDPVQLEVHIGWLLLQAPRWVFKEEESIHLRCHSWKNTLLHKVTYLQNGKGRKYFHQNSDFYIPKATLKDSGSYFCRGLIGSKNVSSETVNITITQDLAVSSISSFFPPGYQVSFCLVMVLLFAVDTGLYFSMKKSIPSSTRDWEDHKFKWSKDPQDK

T2: human CD16b as FACS target of FIGS. 6B-10B (human, UniProt O75015 17-200)
T2 chain: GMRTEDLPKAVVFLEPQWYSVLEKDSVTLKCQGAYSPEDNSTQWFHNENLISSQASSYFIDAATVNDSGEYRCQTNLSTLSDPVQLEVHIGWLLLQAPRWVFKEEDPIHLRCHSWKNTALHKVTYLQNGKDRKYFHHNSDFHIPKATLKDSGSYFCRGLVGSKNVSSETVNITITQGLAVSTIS


Key:
[1] = target: recombinant human CD16a-His protein (Acro Biosystems; catalog #: CDA-H52S1) (human, UniProt P08637 17-208); experiment: ELISA (OD450; legend says FACS)
[2] = target: T1, cynomolgus monkey CD16a on HEK293 cells …; experiment: FACS
[3] = target: human CD16a on HEK293 cells expressing human CD16a (constructed by Genscript) (human, UniProt P08637 17-254); experiment: FACS
[4] = target: T2, human CD16b as FACS target of FIGS. …; experiment: FACS

Chain of recombinant human CD16a-His protein (Acro Biosystems; catalog #: CDA-H52S1) (P08637 17-208): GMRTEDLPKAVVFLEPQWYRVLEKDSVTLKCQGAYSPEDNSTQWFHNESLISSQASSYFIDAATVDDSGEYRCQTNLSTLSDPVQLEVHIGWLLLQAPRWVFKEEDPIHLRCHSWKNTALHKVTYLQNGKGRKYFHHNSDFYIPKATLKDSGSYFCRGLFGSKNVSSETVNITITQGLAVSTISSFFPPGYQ
Chain of human CD16a on HEK293 cells expressing human CD16a (constructed by Genscript) (P08637 17-254): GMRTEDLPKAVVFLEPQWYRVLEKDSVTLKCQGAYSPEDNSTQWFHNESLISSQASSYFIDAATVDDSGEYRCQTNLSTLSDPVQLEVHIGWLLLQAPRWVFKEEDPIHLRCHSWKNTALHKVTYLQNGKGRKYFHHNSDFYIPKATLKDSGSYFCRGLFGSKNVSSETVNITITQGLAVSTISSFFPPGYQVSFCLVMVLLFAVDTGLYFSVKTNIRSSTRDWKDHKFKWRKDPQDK

EC50 [1] | EC50 [2] | EC50 [3] | EC50 [4] | Binder
0.018 µg/mL |  |  |  | AR8875 sdAb fusion protein with mIgG1 Fc (Fc fusion) QVQLVESGGGLVQPGGSLRLSCAASGFTFSNYAMTWVRQAPGKGLEWVSSIDRGGSITSYADSVKGRFAISRDNAKNTMYLQMNNLRPEDTARYVCARGDSTYSRLTAAYRGQGTQVTVSSVPRDCGCKPCICTVPEVSSVFIFPPKPKDVLTITLTPKVTCVVVDISKDDPEVQFSWFVDDVEVHTAQTQPREEQFNSTFRSVSELPIMHQDWLNGKEFKCRVNSAAFPAPIEKTISKTKGRPKAPQVYTIPPPKEQMAKDKVSLTCMITDFFPEDITVEWQWNGQPAENYKNTQPIMDTDGSYFVYSKLNVQKSNWEAGNTFTCSVLHEGLHNHHTEKSLSHSPGK
0.0155 µg/mL |  |  |  | AR8776 sdAb fusion protein with mIgG1 Fc (Fc fusion) AVQLVESGGGLVQPGGSLRLSCAASGFTFSNYAMSWVRQAPGKGLEWVSSINRGGSITNYADSVKGRFAISRDNAKNTIYLQMNNLRPEDTAQYSCARGDSTYSRLSAAYRGQGTQVTVSSVPRDCGCKPCICTVPEVSSVFIFPPKPKDVLTITLTPKVTCVVVDISKDDPEVQFSWFVDDVEVHTAQTQPREEQFNSTFRSVSELPIMHQDWLNGKEFKCRVNSAAFPAPIEKTISKTKGRPKAPQVYTIPPPKEQMAKDKVSLTCMITDFFPEDITVEWQWNGQPAENYKNTQPIMDTDGSYFVYSKLNVQKSNWEAGNTFTCSVLHEGLHNHHTEKSLSHSPGK
0.0174 µg/mL |  |  |  | AR8866 sdAb fusion protein with mIgG1 Fc (Fc fusion) QVKLEESGGGLVQPGGSLRLSCVASGFTFSVWTMSWVRQAPGKGLEWVSDISHSGIYTTYADSVKGRFTISRDNAKNTLWLQLNALKPEDTAVYYCAQGNRRNSMLSGTLRGQGTQVTVSSVPRDCGCKPCICTVPEVSSVFIFPPKPKDVLTITLTPKVTCVVVDISKDDPEVQFSWFVDDVEVHTAQTQPREEQFNSTFRSVSELPIMHQDWLNGKEFKCRVNSAAFPAPIEKTISKTKGRPKAPQVYTIPPPKEQMAKDKVSLTCMITDFFPEDITVEWQWNGQPAENYKNTQPIMDTDGSYFVYSKLNVQKSNWEAGNTFTCSVLHEGLHNHHTEKSLSHSPGK
0.0227 µg/mL |  |  |  | AR8861 sdAb fusion protein with mIgG1 Fc (Fc fusion) AVQLVDSGGGLVQPGGSLRLSCVASGFTFSIWTMSWVRQAPGKGLEWVSDISHSGLYTTYADSVKGRFTISRDNAKNTLWLQLNALKPEDTAVYYCAQGNRRTSMLSGTLRGQGTQVTVSSVPRDCGCKPCICTVPEVSSVFIFPPKPKDVLTITLTPKVTCVVVDISKDDPEVQFSWFVDDVEVHTAQTQPREEQFNSTFRSVSELPIMHQDWLNGKEFKCRVNSAAFPAPIEKTISKTKGRPKAPQVYTIPPPKEQMAKDKVSLTCMITDFFPEDITVEWQWNGQPAENYKNTQPIMDTDGSYFVYSKLNVQKSNWEAGNTFTCSVLHEGLHNHHTEKSLSHSPGK
0.0217 µg/mL |  |  |  | AR8887 sdAb fusion protein with mIgG1 Fc (Fc fusion) QVQLVESGGGLVQAGGSLRLSCAVSGFLYYSIGWFRQAPGKEREWVSCISRSGAGTSYANSVKGRSTISRDNDKNTVYLQMNSLKSEDTAVYYCARRATSSCTATMTRGQYDYWGQGTQVTVSSVPRDCGCKPCICTVPEVSSVFIFPPKPKDVLTITLTPKVTCVVVDISKDDPEVQFSWFVDDVEVHTAQTQPREEQFNSTFRSVSELPIMHQDWLNGKEFKCRVNSAAFPAPIEKTISKTKGRPKAPQVYTIPPPKEQMAKDKVSLTCMITDFFPEDITVEWQWNGQPAENYKNTQPIMDTDGSYFVYSKLNVQKSNWEAGNTFTCSVLHEGLHNHHTEKSLSHSPGK
 | 0.000745 µM | 0.000332 µM | ~167 µM | pTT5-AR8820-2.3mIgG1Fc (Fc fusion) VHH-Fc: EVQLVESGGGLIQPGGSLRLSCAASGSSISRYAMAWYRQAPGKGRELVSVVRITGSPIYADFVGGRFTISRDNSKNTLYLQMNSLRAEDTAVYYCNRGNFNTYTRRYSPSETWGQGTTVTVSSVPRDCGCKPCICTVPEVSSVFIFPPKPKDVLTITLTPKVTCVVVDISKDDPEVQFSWFVDDVEVHTAQTQPREEQFNSTFRSVSELPIMHQDWLNGKEFKCRVNSAAFPAPIEKTISKTKGRPKAPQVYTIPPPKEQMAKDKVSLTCMITDFFPEDITVEWQWNGQPAENYKNTQPIMDTDGSYFVYSKLNVQKSNWEAGNTFTCSVLHEGLHNHHTEKSLSHSPGK
 | 0.000787 µM | 0.000494 µM | ~7840 µM | pTT5-AR8820-2.1mIgG1Fc (Fc fusion) VHH-Fc: EVQLVESGGGLIQPGGSLRLSCAASGSSISRYAMAWYRQAPGKGRELVSVVRITGSPIYADFVGGRFTISRDNSKNTLYLQMNSLRAEDTAVYYCATGNFNTYTRRYSPSETWGQGTTVTVSSVPRDCGCKPCICTVPEVSSVFIFPPKPKDVLTITLTPKVTCVVVDISKDDPEVQFSWFVDDVEVHTAQTQPREEQFNSTFRSVSELPIMHQDWLNGKEFKCRVNSAAFPAPIEKTISKTKGRPKAPQVYTIPPPKEQMAKDKVSLTCMITDFFPEDITVEWQWNGQPAENYKNTQPIMDTDGSYFVYSKLNVQKSNWEAGNTFTCSVLHEGLHNHHTEKSLSHSPGK
 | 0.000772 µM | 0.000384 µM |  | pTT5-AR8820-1.3mIgG1Fc (Fc fusion) heavy: QVQLVESGGGVVQPGGSLRLSCAASGSSISRYAMAWYRQAPGKGRELVAVVRITGSPIYADFVGGRFTISRDNSKNTLYLQMNSLRAEDTAVYYCNTGNFNTYTRRYSPSETWGKGTTVTVSSVPRDCGCKPCICTVPEVSSVFIFPPKPKDVLTITLTPKVTCVVVDISKDDPEVQFSWFVDDVEVHTAQTQPREEQFNSTFRSVSELPIMHQDWLNGKEFKCRVNSAAFPAPIEKTISKTKGRPKAPQVYTIPPPKEQMAKDKVSLTCMITDFFPEDITVEWQWNGQPAENYKNTQPIMDTDGSYFVYSKLNVQKSNWEAGNTFTCSVLHEGLHNHHTEKSLSHSPGK
 | 0.00092 µM | 0.00038 µM | ~65.6 µM | pTT5-AR8820-1.1mIgG1Fc (Fc fusion) heavy: QVQLVESGGGVVQPGGSLRLSCAASGSSISRYAMAWYRQAPGKGRELVAVVRITGSPIYADFVGGRFTISRDNSKNTLYLQMNSLRAEDTAVYYCATGNFNTYTRRYSPSETWGKGTTVTVSSVPRDCGCKPCICTVPEVSSVFIFPPKPKDVLTITLTPKVTCVVVDISKDDPEVQFSWFVDDVEVHTAQTQPREEQFNSTFRSVSELPIMHQDWLNGKEFKCRVNSAAFPAPIEKTISKTKGRPKAPQVYTIPPPKEQMAKDKVSLTCMITDFFPEDITVEWQWNGQPAENYKNTQPIMDTDGSYFVYSKLNVQKSNWEAGNTFTCSVLHEGLHNHHTEKSLSHSPGK
 | 0.000838 µM | 0.000412 µM |  | pTT5-AR8804-3.3mIgG1Fc (Fc fusion) heavy: QVQLVESGGGVVQPGGSLRLSCAASGSSVSRYAMAWYRQAPGKGRELVAVVRITGIPIYADFVKGRFTISRDNSKNTLYLQMNSLRAEDTAVYYCNTGNFNTYTRRYSPSETWGKGTTVTVSSVPRDCGCKPCICTVPEVSSVFIFPPKPKDVLTITLTPKVTCVVVDISKDDPEVQFSWFVDDVEVHTAQTQPREEQFNSTFRSVSELPIMHQDWLNGKEFKCRVNSAAFPAPIEKTISKTKGRPKAPQVYTIPPPKEQMAKDKVSLTCMITDFFPEDITVEWQWNGQPAENYKNTQPIMDTDGSYFVYSKLNVQKSNWEAGNTFTCSVLHEGLHNHHTEKSLSHSPGK
0.0151 µg/mL |  |  |  | AR8820 sdAb fusion protein with mIgG1 Fc (Fc fusion) QVKLEESGGGLVQAGGSLRLSCAASGSSISRYAMAWYRQGPGKERELVAVVRITGSPIYADFVGGRFTISRDNAKSTVLLQMNSLKPEDTAIYYCNTGNFNTYTRRYSPSETWGQGTQVTVSSVPRDCGCKPCICTVPEVSSVFIFPPKPKDVLTITLTPKVTCVVVDISKDDPEVQFSWFVDDVEVHTAQTQPREEQFNSTFRSVSELPIMHQDWLNGKEFKCRVNSAAFPAPIEKTISKTKGRPKAPQVYTIPPPKEQMAKDKVSLTCMITDFFPEDITVEWQWNGQPAENYKNTQPIMDTDGSYFVYSKLNVQKSNWEAGNTFTCSVLHEGLHNHHTEKSLSHSPGK
0.0158 µg/mL |  |  |  | AR8804 sdAb fusion protein with mIgG1 Fc (Fc fusion) AVQLVDSGGGLVQAGGSLRLSCAASGSSVSRYAMAWYRQAPGKERELVAVVRITGIPIYADFVKGRFTISRDNAKNTVLLQMNSLEPEDTAIYYCNTGNFNTYTRRYSPSETWGQGTQVTVSSVPRDCGCKPCICTVPEVSSVFIFPPKPKDVLTITLTPKVTCVVVDISKDDPEVQFSWFVDDVEVHTAQTQPREEQFNSTFRSVSELPIMHQDWLNGKEFKCRVNSAAFPAPIEKTISKTKGRPKAPQVYTIPPPKEQMAKDKVSLTCMITDFFPEDITVEWQWNGQPAENYKNTQPIMDTDGSYFVYSKLNVQKSNWEAGNTFTCSVLHEGLHNHHTEKSLSHSPGK
 | 0.000928 µM | 0.000444 µM | ~195 µM | pTT5-AR8804-3.2 mIgG1Fc (Fc fusion) heavy: QVQLVESGGGVVQPGGSLRLSCAASGSSVSRYAMAWYRQAPGKGREWVAVVRITGIPIYADFVKGRFTISRDNSKNTLYLQMNSLRAEDTAVYYCATGNFNTYTRRYSPSETWGKGTTVTVSSVPRDCGCKPCICTVPEVSSVFIFPPKPKDVLTITLTPKVTCVVVDISKDDPEVQFSWFVDDVEVHTAQTQPREEQFNSTFRSVSELPIMHQDWLNGKEFKCRVNSAAFPAPIEKTISKTKGRPKAPQVYTIPPPKEQMAKDKVSLTCMITDFFPEDITVEWQWNGQPAENYKNTQPIMDTDGSYFVYSKLNVQKSNWEAGNTFTCSVLHEGLHNHHTEKSLSHSPGK
